Source: patent US20250084174A1 (AstraZeneca / MedImmune, published 2025)

Key:
[1] = molecular target: T1, cynomolgus CCR9 (cynomolgus, UniProt Q0H741 1-369); test: binding to HEK cells expressing cynomolgus CCR9, fluorescence counts (FL1 Counts) against Log M
T1 construct: Overexpressed on HEK cells, or endogenous on cynomolgus PBMC; also called cynomolgus CCR9A; Cyno HEK
T1 sequence: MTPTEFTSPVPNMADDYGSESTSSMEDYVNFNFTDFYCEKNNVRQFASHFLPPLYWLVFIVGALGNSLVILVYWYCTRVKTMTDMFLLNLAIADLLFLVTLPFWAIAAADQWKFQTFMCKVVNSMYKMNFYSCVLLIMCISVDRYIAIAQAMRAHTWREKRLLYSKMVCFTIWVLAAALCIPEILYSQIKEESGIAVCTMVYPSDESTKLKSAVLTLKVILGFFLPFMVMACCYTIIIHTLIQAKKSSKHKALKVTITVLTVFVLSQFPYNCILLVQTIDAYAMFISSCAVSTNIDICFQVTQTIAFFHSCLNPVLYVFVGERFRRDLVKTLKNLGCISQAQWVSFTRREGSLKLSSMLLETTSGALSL

[2] = molecular target: T2, CCR5 (UniProt P51681 1-352, limits assumed); test: binding to cells expressing CCR5, fluorescence counts (FL1 Counts) against Log M
T2 construct: whole, on cells; The cell line is not described
T2 sequence (P51681 whole entry): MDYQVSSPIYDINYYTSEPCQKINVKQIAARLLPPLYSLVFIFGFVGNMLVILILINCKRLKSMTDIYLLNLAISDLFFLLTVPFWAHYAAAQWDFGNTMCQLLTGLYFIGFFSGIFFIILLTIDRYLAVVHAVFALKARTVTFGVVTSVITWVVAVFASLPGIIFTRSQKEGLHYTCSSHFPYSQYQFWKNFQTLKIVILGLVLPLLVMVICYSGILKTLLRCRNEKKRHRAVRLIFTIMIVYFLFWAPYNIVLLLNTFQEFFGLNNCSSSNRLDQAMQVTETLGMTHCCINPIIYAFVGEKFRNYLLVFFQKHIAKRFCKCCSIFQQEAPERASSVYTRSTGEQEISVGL

[3] = molecular target: T3, CCR8 (UniProt P51685 1-355, limits assumed); test: binding to cells expressing CCR8, fluorescence counts (FL1 Counts) against Log M
T3 construct: whole, on cells; The cell line is not described
T3 sequence (P51685 whole entry): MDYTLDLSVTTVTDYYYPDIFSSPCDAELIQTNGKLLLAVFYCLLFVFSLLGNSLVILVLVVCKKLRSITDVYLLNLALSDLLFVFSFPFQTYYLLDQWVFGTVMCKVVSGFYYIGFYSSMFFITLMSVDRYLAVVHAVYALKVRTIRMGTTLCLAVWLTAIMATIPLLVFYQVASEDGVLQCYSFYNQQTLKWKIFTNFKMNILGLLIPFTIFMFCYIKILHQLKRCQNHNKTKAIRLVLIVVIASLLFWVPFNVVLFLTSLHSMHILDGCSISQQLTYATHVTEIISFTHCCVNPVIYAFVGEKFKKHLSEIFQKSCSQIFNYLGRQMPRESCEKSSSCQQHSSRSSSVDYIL

[4] = molecular target: T4, human CCR9B (human, UniProt P51686 13-369); test: binding to HEK cells expressing human CCR9B, fluorescence counts (FL1 Counts) against Log M
T4 construct: Overexpressed on HEK cells; also called Hu B HEK; hCCR9 isoform B
T4 sequence: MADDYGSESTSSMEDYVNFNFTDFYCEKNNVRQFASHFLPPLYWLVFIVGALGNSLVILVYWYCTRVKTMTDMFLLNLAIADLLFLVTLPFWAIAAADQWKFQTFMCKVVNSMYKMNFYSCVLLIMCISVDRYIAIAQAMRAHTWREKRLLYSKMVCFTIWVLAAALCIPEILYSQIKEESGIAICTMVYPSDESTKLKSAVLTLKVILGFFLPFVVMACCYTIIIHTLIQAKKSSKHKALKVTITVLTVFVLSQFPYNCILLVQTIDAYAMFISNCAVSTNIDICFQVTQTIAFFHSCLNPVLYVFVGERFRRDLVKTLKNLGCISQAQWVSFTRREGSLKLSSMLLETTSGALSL

[5] = molecular target: T5, CXCR2 (UniProt P25025 1-360, limits assumed); test: binding to cells expressing CXCR2, fluorescence counts (FL1 Counts) against Log M
T5 construct: whole, on cells; The cell line is not described
T5 sequence (looked up): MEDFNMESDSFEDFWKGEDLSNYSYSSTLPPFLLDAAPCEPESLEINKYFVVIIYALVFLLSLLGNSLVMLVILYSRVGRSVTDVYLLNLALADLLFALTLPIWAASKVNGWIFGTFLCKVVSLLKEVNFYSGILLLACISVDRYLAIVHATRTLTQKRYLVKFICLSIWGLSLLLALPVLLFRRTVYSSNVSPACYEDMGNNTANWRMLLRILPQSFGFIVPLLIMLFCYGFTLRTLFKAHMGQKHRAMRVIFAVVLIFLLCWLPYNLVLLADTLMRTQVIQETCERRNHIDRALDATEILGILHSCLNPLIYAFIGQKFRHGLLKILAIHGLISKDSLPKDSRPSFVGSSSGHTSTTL

[6] = molecular target: T6, CXCR1 (UniProt P25024 1-350, limits assumed); test: binding to cells expressing CXCR1, fluorescence counts (FL1 Counts) against Log M
T6 construct: whole, on cells; The cell line is not described
T6 sequence (looked up): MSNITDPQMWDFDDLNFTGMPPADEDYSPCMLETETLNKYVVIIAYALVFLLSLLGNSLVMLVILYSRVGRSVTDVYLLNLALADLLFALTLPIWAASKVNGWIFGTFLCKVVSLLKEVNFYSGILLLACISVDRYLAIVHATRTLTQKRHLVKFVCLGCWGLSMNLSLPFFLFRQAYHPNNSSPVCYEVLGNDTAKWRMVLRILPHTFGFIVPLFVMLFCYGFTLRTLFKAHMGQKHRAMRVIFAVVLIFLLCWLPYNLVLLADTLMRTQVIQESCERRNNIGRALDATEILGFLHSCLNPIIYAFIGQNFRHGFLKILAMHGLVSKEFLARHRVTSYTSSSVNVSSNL

EC50 (read off the curve) [1]: ~0.4 nM
binding result [4]: binds
B1: humanised AB1020243 afuc (AB1020243-fgl) (antibody, V domains shown)
VH: QVQLVQSGAEVKKPGASVKVSCKASGYTFTSYWMHWVRQAPGQGLEWIGVIYPGNSDTRYNQKFKGRVTITRDTSASTAYMELSSLRSEDTAVYYCTRDYYSNYVYYYAMDYWGQGTTVTVSS
VL: DIVMTQTPLSLPVTPGEPASISCRSSQSLVHSNGNTYLHWYLQKPGQSPQLLIYKVSNRFSGVPDRFSGSGSGTDFTLKISRVEAEDVGVYYCSQSTHVPWTFGQGTKLEIK
modifications: afucosylated form; in the LigandTracer assay DyLight 650 Maleimide on an engineered cysteine residue in the CH2 region
notes: Human IgG1 format is stated for LigandTracer; Full chains are not tied to the tested lot
binding result [2]: no binding (tested: Log M about -6.5 (about 3e-7 M))
binding result [3]: no binding (tested: Log M about -6.5 (about 3e-7 M))
binding result [5]: no binding (tested: Log M about -6.5 (about 3e-7 M))
binding result [6]: no binding (tested: Log M about -6.5 (about 3e-7 M))
